From CN117990807A (BEIJING DONGFANG BIOTECH CO LTD; BEIJING JINGYI TAIXIANG …, dated 2024)

T1: 鼠TSLP-His (mouse, UniProt Q9JIE6 20-140)
T1 construct: Bought protein; also called TSLP(Mouse); not shown: His tag
T1 sequence (looked up): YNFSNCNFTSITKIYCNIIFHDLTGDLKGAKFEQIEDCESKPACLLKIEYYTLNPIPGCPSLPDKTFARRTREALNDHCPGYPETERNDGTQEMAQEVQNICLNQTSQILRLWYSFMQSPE


Experiments:
[1] = biological target: T2, 猴TSLP-His (食蟹猴TSLP) (cynomolgus monkey, UniProt A0A7N9CAT7 29-159); experiment: ELISA, cynomolgus TSLP-His coated, goat anti-human IgG-HRP
T2 construct: Bought protein; also called TSLP(Cynomolgus); not shown: His tag
T2 sequence (A0A7N9CAT7 entry or part of it): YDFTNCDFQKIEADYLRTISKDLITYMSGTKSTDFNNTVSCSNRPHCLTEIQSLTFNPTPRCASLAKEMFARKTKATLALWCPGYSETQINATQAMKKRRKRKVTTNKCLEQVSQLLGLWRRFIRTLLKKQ

[2] = biological target: T1, 鼠TSLP-His; experiment: ELISA, mouse TSLP-His coated
[3] = biological target: T3, 人TSLP-His (human, UniProt Q969D9 29-159, limits assumed); experiment: competition ELISA: CRLF2-Fc coated, TSLP-His 10μg/ml plus antibody dilutions, anti-His-HRP
T3 construct: also called TSLP(Human); not shown: His tag

[4] = biological target: T4, TSLP (人TSLP, thymic stromal lymphopoietin) (human, UniProt Q969D9 29-159, limits assumed); experiment: ELISA, TSLP coated, goat anti-mouse IgG-HRP
T4 construct: also called TSLP抗原; 抗原TSLP

[5] = biological target: T3, 人TSLP-His; experiment: ELISA, TSLP-His coated, goat anti-human IgG-HRP

| EC50 [1] [µg/mL] | binding result [2] | IC50 [3] [µg/mL] | EC50 [4] [µg/mL] | EC50 [5] [µg/mL] | Binder |
| --- | --- | --- | --- | --- | --- |
| 0.0508 | no binding (tested: 16μg/ml) |  |  |  | 人源化抗TSLP单克隆抗体HA-Ⅱ (antibody, human IgG1, kappa, L234A L235A, V domains shown, Humanized from MA-Ⅰ) VH: QVQLVQSGAEVKKPGASVKVSCKASGYTFTSYWMHWVRQAPGQGLEWIGLIDPSDSDTTYNQKFKGRATLTVDTSTSTAYMELSSLRSEDTAVYYCSRSLDGYFDHWGQGTLVTVSS VL: DIVMTQSPSSLSASVGDRVTITCRASENIYSYLAWYQQKPGKAPKLLVYNARTLAEGVPSRFSGSGSGTDFTLTISSLQPEDFATYYCQHHYGTPWTFGGGTKVEIKR |
| 0.0508 | no binding (tested: 16μg/ml) |  |  |  | 人源化抗TSLP单克隆抗体HA-Ⅳ (antibody, human IgG1, kappa, L234A L235A, Humanized from MA-Ⅰ) heavy: not shown light: DIVMTQSPSSLSASVGDRVTITCRASENIYSYLAWYQQKPGKAPKLLVYNARTLAEGVPSRFSGSGSGTDFTLTISSLQPEDFATYYCQHHYGTPWTFGGGTKVEIKRTVAAPSVFIFPPSDEQLKSGTASVVCLLNNFYPREAKVQWKVDNALQSGNSQESVTEQDSKDSTYSLSSTLTLSKADYEKHKVYACEVTHQGLSSPVTKSFNRGEC |
| 0.0892 | no binding (tested: 16μg/ml) |  |  |  | 人源化抗TSLP单克隆抗体HA-Ⅲ (antibody, human IgG1, kappa, L234A L235A, Humanized from MA-Ⅰ) heavy: not shown light: DIQMTQSPSSLSASVGDRVTITCRASENIYSYLAWYQQKPGKAPKLLVYNARTLAEGVPSRFSGSGSGTDFTLTISSLQPEDFATYYCQHHYGTPWTFGGGTKVEIKRTVAAPSVFIFPPSDEQLKSGTASVVCLLNNFYPREAKVQWKVDNALQSGNSQESVTEQDSKDSTYSLSSTLTLSKADYEKHKVYACEVTHQGLSSPVTKSFNRGEC |
| 0.0273 | no binding (tested: 16μg/ml) |  |  |  | 人源化抗TSLP单克隆抗体HA-Ⅰ (antibody, human IgG1, kappa, L234A L235A, V domains shown, Humanized from MA-Ⅰ; also called HA-1) VH: QVQLVQSGAEVKKPGASVKVSCKASGYTFTSYWMHWVRQAPGQGLEWIGLIDPSDSDTTYNQKFKGRATLTVDTSTSTAYMELSSLRSEDTAVYYCSRSLDGYFDHWGQGTLVTVSS VL: DIVMTQSPSSLSASVGDRVTITCRASENIYSYLAWYQQKPGKSPKLLVYNARTLAEGVPSRFSGSGSGTDFTLTISSLQPEDFATYYCQHHYGTPWTFGGGTKVEIKR |
|  |  | 1.52 | 0.0011 |  | MA-Ⅰ鼠源抗TSLP单克隆抗体 (murine IgG1/Ck) (antibody, also called MA-I) heavy: QVQLEQSGAELVKPGASVKMSCKASGYTFTSYWMHWVKQRPGQGLEWIGLIDPSDSDTTYNQKFKGKATLTVDTSSSTAYMQLGSLTSEDSAVYYCSRSLDGYFDHWGQGTLVTVSAAKTTPPSVYPLAPGSAAQTNSMVTLGCLVKGYFPEPVTVTWNSGSLSSGVHTFPAVLQSDLYTLSSSVTVPSSTWPSETVTCNVAHPASSTKVDKKIVPRDCGCKPCICTVPEVSSVFIFPPKPKDVLTITLTPKVTCVVVDISKDDPEVQFSWFVDDVEVHTAQTQPREEQFNSTFRSVSELPIMHQDWLNGKEFKCRVNSAAFPAPIEKTISKTKGRPKAPQVYTIPPPKEQMAKDKVSLTCMITDFFPEDITVEWQWNGQPAENYKNTQPIMDTDGSYFVYSKLNVQKSNWEAGNTFTCSVLHEGLHNHHTEKSLSHSPG light: DIVMTQSPASLSASVGETVTITCRASENIYSYLAWYQQKQGKSPQLLVYNARTLAEGVPSRFSGSGSGTQFSLKINSLQPEDFGSFYCQHHYGTPWTFGGGTKLEIKADAAPTVSIFPPSSEQLTSGGASVVCFLNNFYPKDINVKWKIDGSERQNGVLNSWTDQDSKDSTYSMSSTLTLTKDEYERHNSYTCEATHKTSTSPIVKSFNRNEC |
|  |  | 15.6 | 0.00204 |  | MA-Ⅱ鼠源抗TSLP单克隆抗体 (murine IgG1/Ck) (antibody, V domains shown) VH: QVKLQQSGAELVKPGASVKMSCKASGYTFTTYWMHWVKQRPGQGLEWIGVIDPSDSYITYNQKFKGKATLTVDTSSSTAYMQLSSLTSEDSAVYYCTRSLDGYFDYWGQGTLVTVSA VL: DIVLTQSPASLSASVGETVTITCRASENIYSYLAWYQQKQGKSPQLLVYNAKTLAEGVPSRFSGSGSGTQFSLKINSLQPEDFGSYYCQHHYGTPWTFGGGTKLEIKA |
|  |  | 2.4 | 0.00198 |  | MA-Ⅲ鼠源抗TSLP单克隆抗体 (murine IgG1/Ck) (antibody, V domains shown) VH: QVQLQQPGAELVKPGASVKMSCKASGYTFTSYWMHWVKQRPGQGLEWIGVIDPSDSDTTYNQKFKGKATLTVDTSSSTVYMQLSSLTSEDSAVYYCTRSLDGYFDHWGQGTLVTVSA VL: DIVMTQSPASLSASVGETVTITCRASGNIHNYLAWYQQKQGKSPQLLVYNAKTLADGVPSRFSGSGSGTQYSLKINSLQPEDFGSYYCQHFWSTPWTFGGGTKLEIKA |
|  |  | 11.8 | 0.00557 |  | MA-Ⅳ鼠源抗TSLP单克隆抗体 (murine IgG1/Ck) (antibody, V domains shown) VH: QVKLEQSGAELVKPGASVKMSCKASGYTFTSYWMHWVKQRPGQGLEWIGVIDPSDSDTTYNQKFKGKATLTVDTSSSTAYMQLSSLTSEDSAVYYCTRSLDGYFDHWGQGTLVTVSA VL: DIVITQTPASLSASVGETVTITCRASGNIHNYLAWYQQKQGKSPQLLVYNTKTLADGVPSRFSGSGSGTQYSLKINSLQPEDFGSYYCQHFWSTPYTFGGGTKLEIKA |
|  |  |  |  | 0.0131 | 嵌合抗体CA-Ⅰ (antibody, human IgG1, kappa, L234A L235A, also called chimeric antibody CA-I) heavy: not shown light: DIVMTQSPASLSASVGETVTITCRASENIYSYLAWYQQKQGKSPQLLVYNARTLAEGVPSRFSGSGSGTQFSLKINSLQPEDFGSFYCQHHYGTPWTFGGGTKLEIKRTVAAPSVFIFPPSDEQLKSGTASVVCLLNNFYPREAKVQWKVDNALQSGNSQESVTEQDSKDSTYSLSSTLTLSKADYEKHKVYACEVTHQGLSSPVTKSFNRGEC |
